Results published in the DeepSol protein solubility set.

Experiment: soluble on expression in E. coli; label from the status in PepcDB or PDB records

| Sequence | soluble on expression in E. coli |
| --- | --- |
| MGSDKIHHHHHHMPMNIVQVIPSFNVGGGELLAVRLCAEIKNQRPDYKVTLISLYDPIPSIVYDEALASDAQIVTLGKKKGFDPFTPLRMLKTLRAIKPDVIHTHLAGLRYTLLAGVLGNYSLKVHTVHNLATHETFGFLKNVHRVAFKFFSWIPVSLSKEVQDSVRDMYCLESVIVNNGIKTNSEIINKSKEDIRKHYGLPLNSKIIITIGRLCTQKNQLLLIESFNKVCKNAENYTLLIVGEDNLNGSYKNKIDKIISELPDITRENLHLLGPRKDIPELLIASDVFVLSSDWEGVPLTLLEAMGYGTPVVCTSVGGIPDVIEHGFDGLLVSKGDSKSLGNAIIEVLSNNSFASSLAHNARKKFSQLYSIEMTAEKYLQLYNA | not soluble |
| MGSDKIHHHHHHMPNIPLRVNSLATEHPNNAQNSDKMPTFDAIFSHLSAIASHNSHQIIALLPSSDANWPAALIAERLTQAGSKQHLQKQHLHLHLFAQHQASWLKALAESETLASPAKEQIKAICDARVSGSHRLKLVNARLIIDIHLGDPLTQLKDLVSPSLASQAIQGWLANTQATDEALIWQMARLSQDNAEFLLLENNDVNLDKTSNNANTNLLTQLIIKAGFTCYRLNLSLKDDQLVTLAEKPSLASLEIAMVERRALRRQQLDKFAFNPLTQGREGETAIIGGGVASANLALSLAERGKKVSFFCMDKAPGEQASGNKQGAIYPLLTPEHGSLSHYFLLGYLFSRQRIKQLLESGHEIPHDFCGVLQTGHDERSHKRLTKIINAQPWAESIARPVDALQATALAGVTIEHQGIYYPLAGWVSPQ | not soluble |
| MGSDKIHHHHHHMPPRPFDEMTNPDGGIRSPYGLYSDWVNQTPLDVLRQKHAQADVLFRRIGITFAVYGDNQGGERLIPFDVVPRIISKKEWDILSRGVCQRVDALNRFIYDVYHDQEILKAGKVPKGLVRNNGQFRKEMVGFTPPRNLYVQIAGIDIVRTAENEFHVLEDNLRTPSGVSYMLENRDVMTRLFPELFNRHPVAPVNHYAQELLKTLQYSAPDHADNPTVVVLTPGQYNSAYFEHAFLADEMGIELVQGQDLFVEGGHVYMRTIAGPQRVDVIYRRIDDDFLDPLAFRKDSMLGVPGLFEAYRSGAVTLANAIGTGIADDKAIYDFVPGMIEFYLGEKPILRNVPTYHLDDDDDRAYVLEHLAELVVKEVHGSGGYGMLVGPRASRQQISDYRDRILADPANFIAQPTLALSTCPTFVDQGLAPRHVDLRPFVLAGKTTQVVPGGLTRVALEKDSLVVNSSQGGGTKDTWVLER | not soluble |
| MGSDKIHHHHHHMPQTEAPDRILLIKLRHHGDILLTTPVARTLKSRFPQCEIDMLVYRETVPLLQHNPDIARVWTLDRSLRGWRKLVSQLRLLLALRRRRYQTVIHLSDQMQGAFFAKLLARRHAIGFDYPKRRKSPWHRFFTALAPLAPSDTLHTVSQNLLALSPLGITPTADEQRCVLPIQASDREAVAALLREAGVSGPYIVIHPSSRWFFKCWEDDRFAGLAEALASDGWSIVLTAAPDPAEMDMVAAIQGKIRSDRVVSVAGRLTLNQLAAIIDGARMFIGVDSVPMHMAAALGKDTVALFGPSKIHEWHPWMTRHRLLNAADYGELIDPDQVDTSTRQRYLKNIPLEAALRASRELLSSPAQE | not soluble |
| MGSDKIHHHHHHMPSSVCGDPMMCQNCKKSVPNAIFHVYHRRGFHYPAQKCEENFILFLIKGEMLVNSREYAGTMLKAGEFMLQPISSKIEMLAMTDVECIYYQFNQPELFCDIRYNRIMKETDPPLIPSPLPIIPELQHFLESARTYLSEKKICRDLLSLKRKELAFILGYFYSDYDLASLVHPLSKYASSFECFVYQNYKKVKTVEEFAKLGGYSQTTFRRIFDNVFHEPVYEWMLSRRKEEIIYELQNTEATISEICYKFGFESLPHFSNFCKKSFGTSPRSIRLKRSSE | not soluble |
| MGSDKIHHHHHHMPTINSIQTTVNGVVKIVKPFNNDIAGEQFDPHVLQTLTAFKQPAILENDLAALRSGSLTPAIADPVGDAVTVQSRNITALNRTVSVEWLTPQNVINHTVLVYFHGGAFYGGVPGNNTVLLKLVAAKSHCEILNVDYSLAPEAPAPAGILDGLAIFQYLEQRDAETMITVAGDSAGANVIMAATNLNQQLGSNRINQQLLLYPVTAPNADHAGPLWDLAAFPIIDSQRAILTNYHDLFRQLDSIMTDYYVPENFDSHSPLISPLHQENFTMTPPTTIMVGEFDPFRPQAWAYAQRLAAADTATTFIQYQGLNHAFAPLVDQYWQSQDVAQVMAAALI | not soluble |
| MGSDKIHHHHHHMPVFYPAVQGSLPMGGQESLPLRRLKSFQPLGRLTDDQLVLLASRAERRTHGPGQRVMERGVRDGLDYFLISGAVELQSVDGRKSTIEAETDKALNPVARLQPRMYDVTAVKPCEFLVIEQEVLNQMLRAAPISQVEMDSSDHDEDQSEEHHLLMEFYSELRSNQVQLPSVPDVAWKVRRVVDREDSSATEVASAVSADPAMAAKLVRSCNSPLYRGFSDVRNVREAVVRLGMRTTRQLVTVFAMREVFKTRRAPLQKEMEQLWRHSREVAALCWVLADHATRIDPEEALLAGLLHDIGVVPVLVQAEHHVNLFADDRNLHHAIDELRADVGCAVLENWAFPKAFVEAVRHAEDWHHECRETAPQLVDVVIVAQLHSMIGSSQNEGLPAFDQVPAWRRLGELELNASRSLQLLSEARERVDEVQKLLSIR | not soluble |
| MGSDKIHHHHHHMPVMDRAAMRTMATLQPSCMRWLCTTPSILDAAKAGWPISWAATPDSPATVTIRQFQASTCCRKKTFDVVVNTDVLEHVPEAELDCVLRDFRKLSTNAIIIPHLAKATRILPNGENAHCTIKTPSEWAQVFKRHYAHVYELPHHSAVHALFLCGDQERDVTALRGILEQYVAAKNEVRHHLLPLGKRIEKAIRLIRGKDINR | not soluble |
| MGSDKIHHHHHHMQAFDELLTVEQLSFSYEEDEKPVFQDISFELQKGECVLLLGPSGCGKSSLALCLNGLYPEACDGIQSGHVFLFQKPVTDAETSETITQHAGVVFQDPDQQFCMLTVEDEIAFGLENLQIPKEEMTEKINAVLGKLRITHLKEKMISTLSGGQKQKVALACILAMEPELIILDEPTSLLDPFSAREFVHLMKDLQREKGFSLLVIEHQLDEWAPWIERTIVLDKSGKKALDGLTKNLFQHEAETLKKLGIAIPKVCHLQEKLSMPFTLSKEMLFKEPIPAGHVKKKKAPSGESVLEVSSLSFARGQQAIFKDISFSLREGSLTALVGPNGTGKSTLLSVLASLMKPQSGKILLYDQPLQKYKEKELRKRMGFVFQNPEHQFVTDTVYDELLFGQKANAETEKKAQHLLQRFGLAHLADHHPFAISQGQKRRLSVATMLMHDVKVLLLDEPTFGQDARTAAECMEMIQRIKAEGTAVLMITQGYGASLFVC | not soluble |
| MGSDKIHHHHHHMQFPSIEDLRARNTMKWTRYGQGVLPLWVAESDFSTCPAVLQAITDAVQREAFGYQPDGSLLSQATAEFYADRYGYQARPEWIFPIPDVVRGLYIAIDHFTPAQSKVIVPTPAYPPFFHLLSATQREGIFIDATGGINLHDVEKGFQAGARSILLCNPYNPLGMVFAPEWLNELCDLAHRYDARVLVDEIHAPLVFDGQHTVAAGVSDTAASVCITITAPSKAWNIAGLKCAQIIFSNPSDAEHWQQLSPVIKDGASTLGLIAAEAAYRYGTDFLNQEVAYLKNNHDFLLHEIPKRIPGAKITPMQATYLMWIDFRDTTIEGSPSEFFIEKAKVAMNDGAWFGEDGTGFCRLNFATSREVLEEAIDRMAKAVSHHT | not soluble |
| MGSDKIHHHHHHMQISNEDYEQLKPLLFSLGYRLLGSVTDAEDLVQETFLRAYQAEEREINNKKAYLCKMMTNRCLDVLKSARRKREQYVGPWLPEPLLITSDDPSEAILQKEGLSMAYLRMMEHLTPHERAVFLLREVFTFSYREIASMMEKKEDNCRKLYSRAKEKLSAVKGESLHYENNRSVVDRFIHSFQTEDQGDLLELLSDHVTLYTDGGGKVRAALRPIYTKDHVAAFLFGIAKKRPNDFYVEVKNVNGQPALISYADSKLYNVICFYIVGGQIQDIYIIMNPEKLPSNG | not soluble |
| MGSDKIHHHHHHMQKEQCYMCEKSATSAEHVPPKCLFPEFKDAKKNLRVNLITVPSCDEHNGKKSHDDEFLMVSIAGIIGNNSIGYQHYSGKIQRALRRTSYKLLEKVFLRKELVRIGDENKFIEILWGTPDYERLINCFSHIAYGIYHHHFKQKFYGVLKPYLGFLHTNEQNPKAFKAFIKEKVRVELADEPKYGDNLEVFYYQFTKPDNFGIFLVKLCFYQNVDVFVSYMPSGAQKPTHLGFELMNRGIKTIITLGDKEYEFN | not soluble |
| MGSDKIHHHHHHMQKIFDAHLHLWDLEKIPISWIKDDEKLEQNYDFFRMKQEYKEFEFIGAMYVEVNSDDLEKEALFALEQKKLHNLLFCLADFKHKEELSSFREVMHTSKKGAKRLFEADFEEKIEILKTFNIPFEACIKNEELGFLEKFLSKNPNLKVVLNHLGSPKINRLNEYKKDLSFLKKFQNLYIKLSIPDGFSQETPKEFIFELFAFLKENFSENKFIFGSNYPVAKITPAKWAKLIIESKIFDDLDKIFYKNALLIYKGG | not soluble |
| MGSDKIHHHHHHMQKTLNTKKANLAMERAGLTQTAVAESLAVSKEAVSQWLSSKSFPRPNKLLQLGKLLGLPFDELVIKEDPFTPKVAFRKKAGTKTKDHHIEKAQEMGRFLRHLVAYLPFDTLEMPPVLKSPSCEYDYLCKVTAKVREDINVGTAECIDFSHLIRRFSELQAVVVPVMWGVKQRHENAVHIHLPDSQSTWVYLNLDTNIHDFKFWMAHELGHCLSPSLEGDNAEDFADAFAATLLYPNELAEKAYTSINAQPSPAAKIAHVVDLADQFTISPYTVLGQANKYALSTGRNEIKLSNSFHGAVTNFNKRYKNLSEALFGDAELDEHGKPSAKEYINKAETAFETPFFELLRKYLKEHDKGPGFVQTVLDMPLLDARSIHTELT | not soluble |
| MGSDKIHHHHHHMQLDKIIAQNIVKRAMNIIGCSVNVMDHHGIIIASGNPARLNQLHTGAVLALRQNRMVEVDENLAEKWNFDAHPGINVPIQYLGNNIGVIGISGVPEQVKPYAELVKMTAELIIEQHILLEKESWNRRYKEEFILQLVKGNLSLAEIQQQAAFFSFALDIPRVVIIIKLLHPNADSLQQLVGYLEQPQFEQDVAILSLDQIIILQPFNIFAQFGKQLKKLLPKDYSQQDYKIAIGAQLECPAGEQLHLSYRSALSTLQYGLKHYPRKTLYFFEQYRLPVLLAGIADSWQAEELLKPLKALFSEENALLFKTLQQYFLSNCDLVLTAQKLFIHPNTLRYRLAKIEQITALSFNKIEDRFSLYLSTVLI | not soluble |
| MGSDKIHHHHHHMQLHLTDDRFNTDPYWTERIKSTFACPPKEVVSMFDQNGYDLTKLEQLYAVANGAETTKHRNSSHITLRQDWFTADDTEYGPHINHAYMFERKGYSGDALAQLEAWSYYRPHFHKLIAMRPKWGLDFSIDYCDREGNVFELLHWEYDGFDHNEVADKKEKMDEFLVNQDWDERARTMLERKNEWHKLGFFEQSEWKTEFFGIEKERFKMVLWK | not soluble |
| MGSDKIHHHHHHMQLLHTPAAISISFDDPNLISTAGLVPTMALAEDRLTVPTDKGANPGAKITTLIAGMVAGADSIDDIDALRHGGMHRLFDWIYAPSTLGSFLRAFTFGHVRQLDAVASRFLVGLATQAPALVPVDASTSDYVFIDVDDTIIKVHGHQKQGAGFGYSGIRGLNALLATVTTPESAPVVVAQRLRKGSCGSPRGAGRLIADAVATTRRLPGMEDEKILLRADSAFYGHPSISAAIKAGADVSVTVRMTPNVKKAIAQVPDDAWQTIKYTNAIFDEDTGRWISVAEVAEIPFTAFTSRKKTDHIPGLLVVRRIPELNNKDVDQPGLFDLHRFHAVFTTADPGILDTVAADKTHRQHAIIEQVNADVKASALAHMPSGVFTANSAWLVCAVMAFNLTRTAGVIAAGAMARATTATIRRKLVAVPARIARSARRLILHLPRNWRWETQWSRLCDHGRLPP | not soluble |
